# Data taken from IntAct's records for PubMed 21102444.
# B1: Protein DOM34 (Saccharomyces cerevisiae), P33309 (parent)
# chain: MKVISLKKDSFNKGGAVITLLPEDKEDLFTVYQIVDKDDELIFKKKFTSKLDEAGKKKSTDLVKLKIKVISEDFDMKDEYLKYKGVTVTDESGASNVDIPVGKYLSFTLDYVYPFTIIKQNFNKFMQKLLNEACNIEYKSDTAAVVLQEGIAHVCLVTSSSTILKQKIEYSMPKKKRTTDVLKFDEKTEKFYKAIYSAMKKDLNFDKLKTIILCSPGFYAKILMDKIFQYAEEEHNKKILDNKGMFFIAHCSTGYLQGINEVLKNPLYASKLQDTKYSKEIMVMDEFLLHLNKDDDKAWYGEKEVVKAAEYGAISYLLLTDKVLHSDNIAQREEYLKLMDSVESNGGKALVLSTLHSLGEELDQLTGIACILKYPLPDLDEDDGEE
# partner: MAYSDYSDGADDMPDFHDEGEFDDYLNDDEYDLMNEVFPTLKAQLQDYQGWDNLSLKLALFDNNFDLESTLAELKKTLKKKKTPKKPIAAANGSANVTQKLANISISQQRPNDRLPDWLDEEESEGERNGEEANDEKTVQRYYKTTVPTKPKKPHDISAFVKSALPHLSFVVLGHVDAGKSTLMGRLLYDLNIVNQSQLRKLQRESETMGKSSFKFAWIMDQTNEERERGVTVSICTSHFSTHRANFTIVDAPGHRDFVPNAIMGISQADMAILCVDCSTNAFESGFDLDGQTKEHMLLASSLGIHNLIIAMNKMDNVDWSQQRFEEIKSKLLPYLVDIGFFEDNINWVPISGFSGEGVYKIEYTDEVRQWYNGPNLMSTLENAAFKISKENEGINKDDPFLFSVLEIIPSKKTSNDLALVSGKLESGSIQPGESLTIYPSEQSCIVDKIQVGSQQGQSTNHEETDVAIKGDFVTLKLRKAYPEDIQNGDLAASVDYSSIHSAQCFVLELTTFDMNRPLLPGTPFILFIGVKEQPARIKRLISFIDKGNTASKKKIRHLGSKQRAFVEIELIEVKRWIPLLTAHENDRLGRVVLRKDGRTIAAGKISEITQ
# B2: Elongation factor 1 alpha-like protein (Saccharomyces cerevisiae), P32769 (parent)
# chain: B1 partner
# partner: B1 chain
# Variants of: B1
# Conditions: with hbs1_yeast HBS1, P32769
row,Variant,effect of a mutation on the interaction
1,MKVISLKKDSFNKGGAVITLLPEDKEDLFTVYQIVDKDDELIFKKKFTSKLDEAGKKKSTDLVKLKIKVISEDFDMKDEYLKYKGVTVTDESGASNVDIPVGKYLSFTLDYVYPFTIIKQNFNKFMQKLLNEACNIEYKSDTAAVVLQEGIAHVCLVTSSSTILKQKIEYSMPKKKRTTDVLKFDEKTEKFYKAIYSAMKKDLNFDKLKTIILCSPGFYAKILMDKIFQYAEEEHNKKILDNKGMFFIAHCSTGYLQGINEVLKNPLYASKLQDTKYSKEIMVMDEFLLHLNKDDDKAWAGEKEVVKAAEYGAISYLLLTDKVLHSDNIAQREEYLKLMDSVESNGGKALVLSTLHSLGEALDQLTGIACILKYPLPDLDEDDGEE [Y300A;E361A],disrupting interaction
2,MKVISLKKDSFNKGGAVITLLPEDKEDLFTVYQIVDKDDELIFKKKFTSKLDEAGKKKSTDLVKLKIKVISEDFDMKDEYLKYKGVTVTDESGASNVDIPVGKYLSFTLDYVYPFTIIKQNFNKFMQKLLNEACNIEYKSDTAAVVLQEGIAHVCLVTSSSTILKQKIEYSMPAAAATTDVLKFDEKTEKFYKAIYSAMKKDLNFDKLKTIILCSPGFYAKILMDKIFQYAEEEHNKKILDNKGMFFIAHCSTGYLQGINEVLKNPLYASKLQDTKYSKEIMVMDEFLLHLNKDDDKAWYGEKEVVKAAEYGAISYLLLTDKVLHSDNIAQREEYLKLMDSVESNGGKALVLSTLHSLGEELDQLTGIACILKYPLPDLDEDDGEE [K174A;K175A;K176A;R177A],disrupting interaction
3,MKVISLKKDSFNKGGAVITLLPEDKEDLFTVYQIVDKDDELIFKKKFTSKLDEAGKKKSTDLVKLKIKVISEDFDMKDEYLKYKGVTVTDESGASNVDIPVGKYLSFTLDYVYPFTIIKQNFNKFMQKLLNEACNIEYKSDTAAVVLQEGIAHVCLVTSSSTILKQKIEYSMPKKKRTTDVLKFDEKTEKFYKAIYSAMKKDLNFDKLKTIILCSPGFYAKILMDKIFQYAEEEHNKKILDNKGMFFIAHCSTGYLQGINEVLKNPLYASKLQDTKYSKEIMVMDEFLLHLNKDDDKAWYGEKEVVKAAEYGAISYLLLTDKVLHSDNIAQREEYLKLMDSVESNGGKALVLSTLHSLGERLDQLTGIACILKYPLPDLDEDDGEE [E361R],disrupting interaction
4,MKVISLKKDSFNKGGAVITLLPEDKEDLFTVYQIVDKDDELIFKKKFTSKLDEAGKKKSTDLVKLKIKVISEDFDMKDEYLKYKGVTVTDESGASNVDIPVGKYLSFTLDYVYPFTIIKQNFNKFMQKLLNEACNIEYKSDTAAVVLQEGIAHVCLVTSSSTILKQKIEYSMPKKKRTTDVLKFDEKTEKFYKAIYSAMKKDLNFDKLKTIILCSPGFYAKILMDKIFQYAEEEHNKKILDNKGMFFIAHCSTGYLQGINEVLKNPLYASKLQDTKYSKEIMVMDEFLLHLNKDDDKAWYGEKEVVKAAEYGAISYLLLTDKVLHSDNIAQREEYLKLMDSVESNGGKALVLSTLHSLGEALDALTGIACILKYPLPDLDEDDGEE [E361A;Q364A],disrupting interaction
5,MKVISLKKDSFNKGGAVITLLPEDKEDLFTVYQIVDKDDELIFKKKFTSKLDEAGKKKSTDLVKLKIKVISEDFDMKDEYLKYKGVTVTDESGASNVDIPVGKYLSFTLDYVYPFTIIKQNFNKFMQKLLNEACNIEYKSDTAAVVLQEGIAHVCLVTSSSTILKQKIEYSMPKKKRTTDVLKFDEKTEKFYKAIYSAMKKDLNFDKLKTIILCAAGAYAKILMDKIFQYAEEEHNKKILDNKGMFFIAHCSTGYLQGINEVLKNPLYASKLQDTKYSKEIMVMDEFLLHLNKDDDKAWYGEKEVVKAAEYGAISYLLLTDKVLHSDNIAQREEYLKLMDSVESNGGKALVLSTLHSLGEELDQLTGIACILKYPLPDLDEDDGEE [S215A;P216A;F218A],disrupting interaction

# Variants of: B2
# Conditions: with dom34_yeast DOM34, P33309
row,Variant,effect of a mutation on the interaction
1,R256A;D257A;F258A,disrupting interaction
2,R517E,disrupting interaction
3,L520R,disrupting interaction
4,R557A;H558A,disrupting interaction
